1 substance from article PMC4056191 can be followed below.

The target in the experiment is H3.3 G90M (pCDH, transfected) (human) (UniProt P84243). Nature of the experiment: co-IP.

DAXX found with transfected H3 in 293T cells, sequence (Q9UER7 whole entry): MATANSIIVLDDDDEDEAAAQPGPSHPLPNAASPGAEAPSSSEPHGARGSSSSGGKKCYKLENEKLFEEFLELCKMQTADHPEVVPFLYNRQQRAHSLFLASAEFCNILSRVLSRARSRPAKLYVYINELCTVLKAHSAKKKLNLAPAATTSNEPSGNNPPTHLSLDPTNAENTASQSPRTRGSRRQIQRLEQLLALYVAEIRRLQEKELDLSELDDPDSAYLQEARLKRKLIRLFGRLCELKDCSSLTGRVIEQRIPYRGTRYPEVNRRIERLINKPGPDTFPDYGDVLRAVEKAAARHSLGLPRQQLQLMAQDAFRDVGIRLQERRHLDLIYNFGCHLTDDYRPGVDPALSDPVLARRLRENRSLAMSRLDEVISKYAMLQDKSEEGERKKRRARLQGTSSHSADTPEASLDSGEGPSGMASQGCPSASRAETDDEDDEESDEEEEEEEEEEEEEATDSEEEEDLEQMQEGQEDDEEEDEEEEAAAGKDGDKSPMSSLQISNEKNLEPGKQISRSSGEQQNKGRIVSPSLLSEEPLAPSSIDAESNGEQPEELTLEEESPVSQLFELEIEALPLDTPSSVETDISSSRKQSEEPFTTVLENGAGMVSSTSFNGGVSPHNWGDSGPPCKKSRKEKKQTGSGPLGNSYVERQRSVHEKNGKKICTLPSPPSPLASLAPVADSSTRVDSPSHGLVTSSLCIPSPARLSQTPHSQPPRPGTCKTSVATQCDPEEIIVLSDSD

For “DAXX found with transfected H3 in 293T cells (from UniProt Q9UER7 1-740) (natural protein)”, the reduction of DAXX binding against wild-type H3.3 is 50%.
